In patent US20190194722, “METHOD” (Oxford Nanopore Technologies Ltd., published 2019):

B1: transposon 2 (dsDNA)
DNA 1: GTTTTCGCATTTATCGTGAAACGCTTTCGCGTTTTTCGTGCGCCGCTTCA
DNA 2: GATCTGAAGCGGCGCACGAAAAACGCGAAAGCGTTTCACGATAAATGCGAAAACTTTTTTTTTT
B2: MuA adapter (Example 2) (dsDNA)
DNA 1: B1 DNA 2
DNA 2: TGCTGATATTGCGTTTTCGCATTTATCGTGAAACGCTTTCGCGTTTTTCGTGCGCCGCTTCA

Tests used:
[1] = biological target: T1, MuA transposase (UniProt P07636 P07636:1-663); experiment: MuA stays bound after transposition into PhiX174 at room temperature (no Bioanalyser peak); released at 75 C; 10 mM MgCl2, 110 mM NaCl, pH 8; conditions: tags: ThermoFisher Scientific; chain copies: 4; 3' overhang on bottom strand
T1 sequence (P07636 whole entry, one chain of several): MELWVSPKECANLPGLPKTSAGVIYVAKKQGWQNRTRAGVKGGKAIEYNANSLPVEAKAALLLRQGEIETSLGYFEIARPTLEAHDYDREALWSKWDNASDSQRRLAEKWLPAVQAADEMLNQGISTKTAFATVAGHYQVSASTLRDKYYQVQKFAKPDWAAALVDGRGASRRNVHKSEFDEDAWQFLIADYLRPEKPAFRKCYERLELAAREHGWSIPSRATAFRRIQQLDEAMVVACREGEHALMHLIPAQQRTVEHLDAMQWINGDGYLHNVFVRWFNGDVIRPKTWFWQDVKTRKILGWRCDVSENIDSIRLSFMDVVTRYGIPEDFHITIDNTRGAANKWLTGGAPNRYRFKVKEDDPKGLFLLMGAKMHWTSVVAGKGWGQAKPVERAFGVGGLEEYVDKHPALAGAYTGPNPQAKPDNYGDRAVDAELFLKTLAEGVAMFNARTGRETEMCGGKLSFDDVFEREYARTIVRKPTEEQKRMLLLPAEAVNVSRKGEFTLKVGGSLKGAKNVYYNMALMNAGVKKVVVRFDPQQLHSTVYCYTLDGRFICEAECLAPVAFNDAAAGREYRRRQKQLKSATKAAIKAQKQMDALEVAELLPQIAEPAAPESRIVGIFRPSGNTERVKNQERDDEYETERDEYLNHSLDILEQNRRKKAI
Method: Transpososome 1 and transpososome 2 were each mixed to 50 nM with 1.5 ug of PhiX174 RFI DNA (New England Biolabs) in 25 mM Tris.HCl pH8, 110 mM NaCl and 10 mM MgCl₂ in a 30 ul reaction in a 0.2 ml PCR tube. Each reaction was incubated at room temperature for 2 minutes before being split […] to form 3 tubes of 10 uls for each. 1 tube of each transpososome was incubated at 75° C. for 5 minutes, 1 tube of each transpososome was left at room temperature for 5 minutes with nothing added. Hel308Mbu-E284C/S615C-STrEP(C) (1 uM) was added to the final tubes along with 10 mM of ATP (Sigma-Aldrich) and incubated at room temperature for 5 minutes. 1 ul of each reaction was then analysed on the Agilent 2100 Bioanalyser 12,000 bp setting, along with 1 ul of unmodified PhiX.

[2] = biological target: T1, MuA transposase; experiment: MuA stays bound at room temperature; tagmentation peak only after 75 C; MgCl2 buffer; conditions: tags: ThermoFisher Scientific; chain copies: 4; 5' bottom strand flap, 12 nt 5' tail on top strand, 10 nt 3' tail on bottom strand
Method: A transposome complex was formed but addition of 1 ul of the MuA adapter, 4.5 ul of nuclease free water, 2 ul of 5× transposome buffer (125 mM Tris pH 8, 550 mM NaCl, 2.5 mM EDTA, 50% glycerol, 0.25% Triton-X100) and 2.5 ul of concentrated MuA transposase (Thermofisher). The mixture was then incubated at 30° C. for 1.5 hours.
A transposition reaction, containing 10 ul of 5× transposase buffer (125 mM Tris pH 8, 550 mM NaCl, 50 mM MgCl2), 5 ul transposome, 2.5 ug PhiX RFI (NEB) and nuclease free water to 50 ul, was then carried out at room temperature for 10 minutes. After 10 mins 6.25 ul of 100 mM rATP was added and the reaction was split into 5×11.25 ul. To sample (i) and (ii) 1.25 ul of nuclease free water was added; to sample (iii) 1.25 ul of Hel308Mbu-E284C-STrEP(C) (SEQ ID NO: 10 with mutation E284C with a streptavidin tag attached at its C terminus) was added; to sample (iv) 1.25 ul of T4 Dda—(E94C/F98W/C109A/C136A/A360C) (SEQ ID NO: 97 with mutations E94C/F98W/C109A/C136A/A360C and then (ΔM1)G1G2 (where (ΔM1)G1G2=deletion of M1 and then addition G1 and G2), was added; to sample (v) 1.25 ul of UvrD Eco-(E117C/M380C)-STrEP (SEQ ID NO: 122 with mutations E177C/M380C with a streptavidin tag attached at the C terminus). Samples (i), (iii), (iv) and (v) were then left at room temperature for 10 mins while sample (ii) was left at 75° C. for 10 mins. […]

Binder	binding result [1]	binding result [2]
B1	binds	–
B2	–	binds
